Laboratory results reported in patent US20230303698A1 (HARBOUR BIOMED SHANGHAI, published 2023).

Legend:
human PD-L1 = biological target: T1, human PD-L1 (human, UniProt Q9NZQ7 19-290); assay: flow cytometry, CHO-K1/hPD-L1 cells
T1 construct: whole, on cells; Expressed on CHO-K1/hPD-L1 cells (GenScript, M00543); also called CD274; B7-H1

human 4-1BB = biological target: T2, human 4-1BB (human, UniProt Q07011 24-255); assay: flow cytometry, CHO-K1/hu 4-1BB cells
T2 construct: whole, on cells; Expressed on CHO-K1/hu 4-1BB cells (GenScript, M00538); also called CD137; TNFRSF9
T2 sequence (Q07011 24-255): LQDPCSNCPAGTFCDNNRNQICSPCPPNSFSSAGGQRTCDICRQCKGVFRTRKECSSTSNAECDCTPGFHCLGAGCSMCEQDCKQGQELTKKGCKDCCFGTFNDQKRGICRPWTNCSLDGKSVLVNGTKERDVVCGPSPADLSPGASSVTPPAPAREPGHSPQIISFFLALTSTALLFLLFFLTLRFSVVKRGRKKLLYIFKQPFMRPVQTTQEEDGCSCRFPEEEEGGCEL
Protocol: The binding ability of the binding protein to a CHO-K1 cell line CHO-K1/hu 4-1BB (GenScript, M00538) highly expressing human 4-1BB and a CHO-K1 cell line CHO-K1/cyno 4-1BB (GenScript, M00569) highly expressing cynomolgus monkey 4-1BB were determined by flow cytometry FACS. Specifically, the cells were digested and resuspended in a complete medium, and the cell density was adjusted to 2×10⁶ cells/mL. […] The cells were incubated at 4° C. for 1 h away from light. Then, the cells in each well were rinsed twice with 100 μL of pre-cooled FACS buffer (PBS buffer containing 0.5% BSA) and centrifuged at 500 g at 4° C. for 5 min, and then the supernatant was discarded. […] Then, the cells in each well were then rinsed twice with 200 μL of pre-cooled FACS buffer and centrifuged at 500 g at 4° C. for 5 min, and then the supernatant was discarded. Finally, a pre-cooled FACS buffer was added at 200 μL/well to resuspend the cells. Fluorescence signal values were read using a BD FACS CANTOII flow cytometer or an ACEA NovoCyte flow cytometer, and the data were processed and analyzed using FlowJo v10 (FlowJo, LLC) software.

T1 sequence (Q9NZQ7 19-290): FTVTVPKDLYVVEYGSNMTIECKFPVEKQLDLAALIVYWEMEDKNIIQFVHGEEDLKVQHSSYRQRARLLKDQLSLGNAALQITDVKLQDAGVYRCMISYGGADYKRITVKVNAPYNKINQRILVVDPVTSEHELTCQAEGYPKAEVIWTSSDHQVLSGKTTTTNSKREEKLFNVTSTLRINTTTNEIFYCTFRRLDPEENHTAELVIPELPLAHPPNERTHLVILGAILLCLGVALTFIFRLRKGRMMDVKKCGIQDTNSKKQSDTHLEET

Row | Binder | binding result (human PD-L1) | binding result (human 4-1BB)
1 | PR003549 (bispecific antibody, human IgG1, kappa, L234A L235A, Structure 1, IgG-VH tetravalent symmetric; PD-L1 Fab from PR000265, 4-1BB VH from PR001758; linker H1_15-RT; human IgG1 (AAG); also called PD-L1×4-1BB bispecific antibody molecule) light: DIQMTQSPSTLSASVGDRVTVTCRASQSIYIWLAWYQQKPGKAPNLLIYKASSLETGVPSRFSGSGSGTEFTLTISSLQPDDFATYYCQQYYGSSRTFGQGTKVEIKRTVAAPSVFIFPPSDEQLKSGTASVVCLLNNFYPREAKVQWKVDNALQSGNSQESVTEQDSKDSTYSLSSTLTLSKADYEKHKVYACEVTHQGLSSPVTKSFNRGEC heavy: EVQLVESGGGLVQPGGSLRLSCAASGFTFSSYWMSWVRQAPGKGLEWVANIKQEGSEKYYVDSVKGRFTISRDNAKNSLYLQMNSLRAEDTAVYYCARDRAVAGAFDIWGQGTMVTVSSASTKGPSVFPLAPSSKSTSGGTAALGCLVKDYFPEPVTVSWNSGALTSGVHTFPAVLQSSGLYSLSSVVTVPSSSLGTQTYICNVNHKPSNTKVDKKVEPKSCDKTHTCPPCPAPEAAGGPSVFLFPPKPKDTLMISRTPEVTCVVVDVSHEDPEVKFNWYVDGVEVHNAKTKPREEQYNSTYRVVSVLTVLHQDWLNGKEYKCKVSNKALGAPIEKTISKAKGQPREPQVYTLPPSREEMTKNQVSLTCLVKGFYPSDIAVEWESNGQPENNYKTTPPVLDSDGSFFLYSKLTVDKSRWQQGNVFSCSVMHEALHNHYTQKSLSLSPGEPKSSDKTHTPPPPPRTEVQLLESGGGLVQLGGSLRLSCAASGFTFSRYAMTWVRQAPEKGLEWVSSISGSGDDTYYGDSVKGRFTISRDNSQNTVYLQMNSLRAEDTAVYFCAKEKAGTTGDYYYNVDVWGQGTTVTVSS | binds | binds
2 | PR003550 (bispecific antibody, human IgG1, kappa, L234A L235A, Structure 1, IgG-VH tetravalent symmetric; PD-L1 Fab from PR000265, 4-1BB VH from PR001760; linker H1_15-RT; human IgG1 (AAG); also called PD-L1×4-1BB bispecific antibody molecule) light: DIQMTQSPSTLSASVGDRVTVTCRASQSIYIWLAWYQQKPGKAPNLLIYKASSLETGVPSRFSGSGSGTEFTLTISSLQPDDFATYYCQQYYGSSRTFGQGTKVEIKRTVAAPSVFIFPPSDEQLKSGTASVVCLLNNFYPREAKVQWKVDNALQSGNSQESVTEQDSKDSTYSLSSTLTLSKADYEKHKVYACEVTHQGLSSPVTKSFNRGEC heavy: EVQLVESGGGLVQPGGSLRLSCAASGFTFSSYWMSWVRQAPGKGLEWVANIKQEGSEKYYVDSVKGRFTISRDNAKNSLYLQMNSLRAEDTAVYYCARDRAVAGAFDIWGQGTMVTVSSASTKGPSVFPLAPSSKSTSGGTAALGCLVKDYFPEPVTVSWNSGALTSGVHTFPAVLQSSGLYSLSSVVTVPSSSLGTQTYICNVNHKPSNTKVDKKVEPKSCDKTHTCPPCPAPEAAGGPSVFLFPPKPKDTLMISRTPEVTCVVVDVSHEDPEVKFNWYVDGVEVHNAKTKPREEQYNSTYRVVSVLTVLHQDWLNGKEYKCKVSNKALGAPIEKTISKAKGQPREPQVYTLPPSREEMTKNQVSLTCLVKGFYPSDIAVEWESNGQPENNYKTTPPVLDSDGSFFLYSKLTVDKSRWQQGNVFSCSVMHEALHNHYTQKSLSLSPGEPKSSDKTHTPPPPPRTEVQLVESGGGVVQPGGSLRLSCAASGFTFSNYAMTWVRQAPEKGLEWVSSISGSGVSTYYADSVKGRFTISRDNSKNTLYLQMTRLTAEDTAVYFCAKEGSSETDDHYYNVDVWGQGTTVTVSS | binds | 
3 | PR007163 (bispecific antibody, human IgG1, Structure 4, Fab(CH1)-VH-Fc (Fab-HCAb); PD-L1 Fab from PR000265, 4-1BB VH from PR001760; no first linker, second linker human IgG1 hinge (C220S); human IgG1 (LALA); also called PD-L1×4-1BB bispecific antibody molecule, structure (4)) light: DIQMTQSPSTLSASVGDRVTVTCRASQSIYIWLAWYQQKPGKAPNLLIYKASSLETGVPSRFSGSGSGTEFTLTISSLQPDDFATYYCQQYYGSSRTFGQGTKVEIKRTVAAPSVFIFPPSDEQLKSGTASVVCLLNNFYPREAKVQWKVDNALQSGNSQESVTEQDSKDSTYSLSSTLTLSKADYEKHKVYACEVTHQGLSSPVTKSFNRGEC heavy: not shown | binds | 
4 | PR003551 (bispecific antibody, human IgG1, kappa, L234A L235A, Structure 1, IgG-VH tetravalent symmetric; PD-L1 Fab from PR000265, 4-1BB VH from PR001836; linker H1_15-RT; human IgG (AAG) as printed; also called PD-L1×4-1BB bispecific antibody molecule) light: DIQMTQSPSTLSASVGDRVTVTCRASQSIYIWLAWYQQKPGKAPNLLIYKASSLETGVPSRFSGSGSGTEFTLTISSLQPDDFATYYCQQYYGSSRTFGQGTKVEIKRTVAAPSVFIFPPSDEQLKSGTASVVCLLNNFYPREAKVQWKVDNALQSGNSQESVTEQDSKDSTYSLSSTLTLSKADYEKHKVYACEVTHQGLSSPVTKSFNRGEC heavy: EVQLVESGGGLVQPGGSLRLSCAASGFTFSSYWMSWVRQAPGKGLEWVANIKQEGSEKYYVDSVKGRFTISRDNAKNSLYLQMNSLRAEDTAVYYCARDRAVAGAFDIWGQGTMVTVSSASTKGPSVFPLAPSSKSTSGGTAALGCLVKDYFPEPVTVSWNSGALTSGVHTFPAVLQSSGLYSLSSVVTVPSSSLGTQTYICNVNHKPSNTKVDKKVEPKSCDKTHTCPPCPAPEAAGGPSVFLFPPKPKDTLMISRTPEVTCVVVDVSHEDPEVKFNWYVDGVEVHNAKTKPREEQYNSTYRVVSVLTVLHQDWLNGKEYKCKVSNKALGAPIEKTISKAKGQPREPQVYTLPPSREEMTKNQVSLTCLVKGFYPSDIAVEWESNGQPENNYKTTPPVLDSDGSFFLYSKLTVDKSRWQQGNVFSCSVMHEALHNHYTQKSLSLSPGEPKSSDKTHTPPPPPRTEVQLLESGGGLVQPGGSLRLSCAASGFIFSNFAMTWVRQPPEKGLKWVSSINGSGFNTYYTDSVKGRFTISRDNSRNTLYLQMNRLTAEDTAVYFCAKEGSSETDDHYYNVDVWGQGTTVTVSS | binds | binds
5 | PR001760, anti-4-1BB heavy-chain antibody 1016P0011G10 (antibody, human IgG1, V domains shown, Fully human heavy-chain antibody (HCAb), heavy chain dimer without light chains; also called anti-4-1BB HCAb antibody) VH: EVQLVESGGGVVQPGGSLRLSCAASGFTFSNYAMTWVRQAPEKGLEWVSSISGSGVSTYYADSVKGRFTISRDNSKNTLYLQMTRLTAEDTAVYFCAKEGSSETDDHYYNVDVWGQGTTVTVSS |  | binds
6 | PR003562 (bispecific antibody, human IgG1, kappa, L234A L235A, Structure 1, IgG-VH; CLDN18.2 Fab from PR002726, 4-1BB VH from PR001758; linker H1_15-RT; human IgG1 (AAG); also called CLDN18.2×4-1BB bispecific antibody molecule) light: not shown heavy: EVQLLESGGGLVQPGGSLRLSCAASGFTFSSFVMSWVRQAPGKGLEWVSTISGSGRSTYYADSVKGRFTISRDNSKNTLHLQMNSLRAEDTAVYYCAKDAAAAGTKFDYWGQGTLVTVSSASTKGPSVFPLAPSSKSTSGGTAALGCLVKDYFPEPVTVSWNSGALTSGVHTFPAVLQSSGLYSLSSVVTVPSSSLGTQTYICNVNHKPSNTKVDKKVEPKSCDKTHTCPPCPAPEAAGGPSVFLFPPKPKDTLMISRTPEVTCVVVDVSHEDPEVKFNWYVDGVEVHNAKTKPREEQYNSTYRVVSVLTVLHQDWLNGKEYKCKVSNKALGAPIEKTISKAKGQPREPQVYTLPPSREEMTKNQVSLTCLVKGFYPSDIAVEWESNGQPENNYKTTPPVLDSDGSFFLYSKLTVDKSRWQQGNVFSCSVMHEALHNHYTQKSLSLSPGEPKSSDKTHTPPPPPRTEVQLLESGGGLVQLGGSLRLSCAASGFTFSRYAMTWVRQAPEKGLEWVSSISGSGDDTYYGDSVKGRFTISRDNSQNTVYLQMNSLRAEDTAVYFCAKEKAGTTGDYYYNVDVWGQGTTVTVSS |  | binds
